Reference: patent publication US5747329

Target: heavy subunit of rat kidney gamma-glutamylcysteine synthetase (rat)

Q: With “light subunit of rat kidney gamma-glutamylcysteine synthetase (enzyme)” as the substance, how does the Apparent Km for glutamate (mM), co-expressed recombinant holoenzyme read?
A: The Apparent Km for glutamate (mM), co-expressed recombinant holoenzyme was 1.8 mM.

Q: What about the Apparent Km for glutamate (mM), recombinant holoenzyme made by mixing the separately expressed subunits of the same substance?
A: Its Apparent Km for glutamate (mM), recombinant holoenzyme made by mixing the separately expressed subunits is 2.8 mM.
